This is an account of results in the supplement of paper PMC12042874.

± gives the uncertainty stated by the source.

The series can be described thus: amyloid nucleation score (Sup35N fusion, yeast selection) (log enrichment); library NNK3; higher = more nucleation; inactive = no reads after selection. The essentials:
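Yeast lacking psi expressed peptides of 20 random codons fused to Sup35N, received 100 μM copper sulfate for 24 hours, and were then grown for 7 days at 30°C on medium lacking adenine and uracil. Illumina sequencing of input and output plasmid inserts provided the reads. Nucleation scores are DiMSum log enrichments of output over input, centred on the mode of non-aggregating sequences. Any sequence with under 100 input reads was excluded.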
Regarding TYLLFGSTLGLSQWVYLDVE, the amyloid nucleation score result is “inactive”. In the case of TYLLNGTILLNPCKLC it was “inactive”; in that of TYLVNSDMMGDRIFGACRDV, “inactive”; in that of TYMSNNTMGEFFLNLRVNLY, 2.44 ± 0.068. Turning to TYTSVGETS, the amyloid nucleation score result is “inactive”. For the substance TYTYIGIKAFCDLYRSKMGV, the amyloid nucleation score entry is “inactive”. To TYWVGWML belongs “inactive”; to TYYGCYLVGR, 0.01 ± 0.66. To VAAMYGILMMLMELVWSDAR belongs “inactive”; to VAFYVTHGAIVYFSMGCAGI, 1.63 ± 0.11; to VAIIAYQWSIPSMAGPVNRR, 0.652 ± 0.28. On to VALLTYFWYGPIKGVAS, for which the amyloid nucleation score entry was “inactive”. Take VALWGSWRRPWDAVAFDRTG: the amyloid nucleation score entry was “inactive”. As for VANIFVVISIVGVDTRLFIV, the amyloid nucleation score worked out at 0.519 ± 0.23. As to VANYGQVQHWYRGYVEDEGL, the amyloid nucleation score result is “inactive”. For VAPLAILDRKSKSLVGNNMA, the amyloid nucleation score entry is “inactive”. To VAQRELWEEAIRCRYEH belongs “inactive”; to VARELGLCYVWAGSRGVSRV, -0.323 ± 1.8.

The substance VAWRLFQNVWVHTGSDGYTV yielded an amyloid nucleation score of -0.601 ± 1.1. To VAYNRGSQCCR belongs “inactive”. To VCADIVLPQMDLPGSSGREK belongs “inactive”.

With VCANLSWPFLSNTLLFVCLG, the amyloid nucleation score entry was “inactive”. In the case of VCAVSFGRWYG, the amyloid nucleation score entry was “inactive”. The substance VCCSYY registered an amyloid nucleation score of 1.32 ± 0.11. In the case of VCFRNAFFHCSQMRTCNRVI it was 0.262 ± 0.74; in that of VCGASGCKWAVTNSRHDGNG, “inactive”. Take VCNQS: the amyloid nucleation score entry was “inactive”. As to VCRRTGSKITFGQWKVYFSS, the amyloid nucleation score entry was “inactive”. With VCSFDMRDLQKTE, the amyloid nucleation score entry is “inactive”. As for VCTPNRCLSTLSR, the amyloid nucleation score entry was “inactive”. In the case of VCVRKLELGDCLKCG it was “inactive”; in that of VCVRYFGDIFYVLYTFVMRA, 0.051 ± 0.46. To VCWSHKCRVDVS belongs “inactive”. On to VCYKPFTSVYLVCTYHLFKS, for which the amyloid nucleation score result is “inactive”.

In the case of VDEFFGRGVHWLTVRLGLGM, the amyloid nucleation score result was “inactive”. In the case of VDLYV it was “inactive”; in that of VDNIVVVCCFKDNCLSKG, 1.85 ± 0.09. With VDNNHYQRKSKGFGVAGLIR, the amyloid nucleation score result was “inactive”. For VDSDHIIHSTVLISVLGELD, the amyloid nucleation score result is “inactive”. Regarding VDTYHTFVVVLH, the amyloid nucleation score result was “inactive”. With VDVFK, the amyloid nucleation score entry was “inactive”.

As to VDVVLGMSIG, the amyloid nucleation score result is “inactive”. To VEDGAGGP belongs “inactive”; to VEDLMF, “inactive”; to VEDWATILSYY, “inactive”. In the case of VEFIEFMYDPSYYVSNQNST it was “inactive”.

Turning to VEGRCPLNH, the amyloid nucleation score entry was “inactive”. To VEHSFYSLVCHRTDLF belongs “inactive”. To VEIGCANSRWDLLGVVCCLG belongs 1.27 ± 0.17. Regarding VELSNVFWGERYIKGLLTDL, the amyloid nucleation score entry was “inactive”. The substance VENVDYFCDFGTISIL yielded an amyloid nucleation score of 1.66 ± 0.087. To VFCLVYKKCLKSYCQYMVIG belongs “inactive”; to VFCSSDTAFPEGTTVSSRSR, “inactive”. To VFEVEPNLGIGYSAKACNVG belongs “inactive”; to VFFMNYGHVIVHFEKFFGGN, 2.6 ± 0.082; to VFFRYWV, 1.62 ± 0.073. VFGPLYSSYDIRQ: the amyloid nucleation score result is “inactive”.

As for VFGPRRPMVNCSN, the amyloid nucleation score result is “inactive”. To VFHRQERMLTPCT belongs “inactive”; to VFKMACEWSALWWNLLHTYS, “inactive”. On to VFLKSNSAVQLSFRFNYHNL, for which the amyloid nucleation score entry is “inactive”.

For VFLLCSLILWRAQLQLVCSL, the amyloid nucleation score entry is “inactive”. In the case of VFNFPQSDGNRSYMDFMAIQ it was “inactive”; in that of VFNIRHSSDPRLYLTYVMSS, 1.19 ± 0.12. In the case of VFNRSCINFKRYGSA it was “inactive”. Turning to VFNYVIGPGDKFAD, the amyloid nucleation score entry is “inactive”.

Consider VFPLSAY, for which the amyloid nucleation score entry is “inactive”. In the case of VFPYFELCVFLPSYFREAET it was “inactive”. With VFSEWYVFHGQEVSTIHCAH, the amyloid nucleation score result is “inactive”. To VFSGGVRETLNSS belongs “inactive”; to VFSGIL, “inactive”; to VFSMWFSGLTTSIYRSLED, “inactive”. To VFSNGSRDAWSFFNQKSNRF belongs 0.193 ± 0.21.

Regarding VFTDLCTYKTCTYVIPCTAE, the amyloid nucleation score entry was “inactive”.

In the case of VFVSSKTISLSGSLMISPNL, the amyloid nucleation score amounted to 1.69 ± 0.086.

On to VFYLCNFWGCWTCSIAVIVS, for which the amyloid nucleation score amounted to 0.576 ± 0.17.

For VGDLLCPIASLGSRRNLWCR, the amyloid nucleation score entry was “inactive”. Turning to VGESDKLHFAH, the amyloid nucleation score result is “inactive”. In the case of VGFLWMQRVNEVDK it was “inactive”. To VGGIRLRIE belongs “inactive”; to VGHFISYCNRIFSAKAIIVF, “inactive”.

Take VGKLLVGTWWHGSYRSMSKR: the amyloid nucleation score entry is “inactive”. In the case of VGLWYSDIISVFCLNLMRLV, the amyloid nucleation score result is “inactive”. The substance VGNYINVANMYSWGVIIRND registered an amyloid nucleation score of 2.39 ± 0.072.

Consider VGRHAYRC, for which the amyloid nucleation score result was “inactive”. To VGRSEIYPACPLHSFKMDKF belongs “inactive”; to VGSNSDSVCCSPVVAGFQWT, 1.07 ± 0.1. In the case of VGYVFFGFPVLKYARQESLS it was “inactive”; in that of VHFKRVEKG, “inactive”; in that of VHGPKNCWKCDFKER, “inactive”.

As for VHGVRV, the amyloid nucleation score result was “inactive”.

Take VHLGSFDFIFLNMSSTRSLG: the amyloid nucleation score result is “inactive”. To VHMNRSGSAALEFGMLWEYI belongs “inactive”; to VHRWGYQCSWVEQ, “inactive”; to VHSPWVNNLYQCWTYYFLLL, 0.162 ± 0.88. Consider VHTMEEVA, for which the amyloid nucleation score entry is “inactive”. Consider VHYKVKGSLPFCCGYFNSLW, for which the amyloid nucleation score came out at 1.67 ± 0.079. Turning to VHYWCGTQVVA, the amyloid nucleation score result was “inactive”.

For VIALDVNL, the amyloid nucleation score result was “inactive”. In the case of VICKAPGRPGHLCCKCIAVH it was “inactive”; in that of VIDFYVEPCLIYGAPPCWLH, 0.606 ± 0.38; in that of VIDWAYSPKPSDLTG, 1.09 ± 0.16. On to VIFDLVVGCGAVL, for which the amyloid nucleation score entry was “inactive”. In the case of VIGHMIGMDY it was “inactive”; in that of VIGTGN, “inactive”; in that of VIILMVIVLYNRVSFETFSV, “inactive”. To VIILTYVSMLTTAHINGWSG belongs 0.309 ± 0.29; to VILLSLAY, “inactive”; to VILMFDSCGGFDW, “inactive”. Substance VIMGDINQVAQPGDLRRFRC displayed an amyloid nucleation score of -0.423 ± 1.4.

In the case of VIRVLQPFDCGCILYSCLIS, the amyloid nucleation score result is “inactive”. Regarding VISGVIVMWYAWMWAGYRVR, the amyloid nucleation score entry was “inactive”.

On to VISIPHGSAIRTCIVITMSL, for which the amyloid nucleation score entry was “inactive”. In the case of VISVTRSYSHTYK it was “inactive”. In the case of VITVIFVSYYCIPVWYW it was 1.81 ± 0.099. In the case of VIVTVVSPTSMRNGDTRMQI it was “inactive”; in that of VIVYLFICNADLYFYKMSDF, 1.72 ± 0.12. On to VIWLGRRCTFLHKPTSRGQW, for which the amyloid nucleation score was found to be 0.021 ± 0.6. In the case of VIYRSYLRIDSFIGRGGLII it was 0.567 ± 0.26; in that of VKGMKCWCQVRSESGLVSNA, “inactive”; in that of VKLALRTAFVGSQVYRILRA, -0.076 ± 0.88.

VKLRPLCAVKIRRYLYVVRE came in with an amyloid nucleation score of -0.054 ± 0.3.

Regarding VKLSL, the amyloid nucleation score result is “inactive”. In the case of VKWKDVDLFGLC it was “inactive”; in that of VKWWGAES, “inactive”; in that of VKYVNEPVSHSIDWIPSPFP, 0.559 ± 0.24. To VLFSFAMLFKACLACFISCV belongs “inactive”; to VLGYYAKGDRSSWSRGYSY, 0.194 ± 0.87; to VLKASNFV, “inactive”. For VLKDNF, the amyloid nucleation score entry was “inactive”. As to VLKFFLTAMVD, the amyloid nucleation score entry was “inactive”. As for VLLAIGWVGGIFCGIWAGSH, the amyloid nucleation score entry was “inactive”. On to VLLPAGRIR, for which the amyloid nucleation score entry is “inactive”. Consider VLLVLVI, for which the amyloid nucleation score result was “inactive”.
